Results from US8637016.

Biological target: EphA3 antigen (Homo sapiens (Human)) (UniProt P29320)
Test: ELISA on EphA3 antigen

UniProt P29320, sequence (P29320 21-541 limits assumed, form in doubt): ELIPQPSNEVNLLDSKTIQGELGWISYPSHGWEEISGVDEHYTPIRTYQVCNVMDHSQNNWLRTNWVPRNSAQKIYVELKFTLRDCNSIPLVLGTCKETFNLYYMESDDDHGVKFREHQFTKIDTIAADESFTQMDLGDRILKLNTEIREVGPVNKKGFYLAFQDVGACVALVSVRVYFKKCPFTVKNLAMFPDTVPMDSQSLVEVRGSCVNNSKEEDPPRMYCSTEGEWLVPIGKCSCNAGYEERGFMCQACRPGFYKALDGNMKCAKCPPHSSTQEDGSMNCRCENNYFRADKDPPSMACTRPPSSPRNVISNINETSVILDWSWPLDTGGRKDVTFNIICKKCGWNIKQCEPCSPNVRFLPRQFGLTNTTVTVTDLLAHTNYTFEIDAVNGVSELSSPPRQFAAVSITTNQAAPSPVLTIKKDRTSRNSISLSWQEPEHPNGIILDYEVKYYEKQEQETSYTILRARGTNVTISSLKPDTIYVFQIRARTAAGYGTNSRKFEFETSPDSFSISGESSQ

- AFFINITY: 2.5 nM
Substance: monoclonal antibody IIIA4
